Experimental data reported in publication PMC9041834, “Ubiquitin ligase activity inhibits Cdk5 to control axon termination” (PLoS Genetics, 2022).

Target: T1, GFP::FSN-1 CRISPR (endogenous FSN-1 N-terminally fused with GFP) (C. elegans, UniProt Q18223 1-332)
T1 construct: FSN-1, F-box protein of C. elegans (orthologue of human FBXO45), expressed from the endogenous locus; also called bgg47; source: C. elegans, endogenous locus tagged by CRISPR/Cas9, in whole animal lysate; not shown: GFP, N-terminal, kept
T1 sequence (looked up): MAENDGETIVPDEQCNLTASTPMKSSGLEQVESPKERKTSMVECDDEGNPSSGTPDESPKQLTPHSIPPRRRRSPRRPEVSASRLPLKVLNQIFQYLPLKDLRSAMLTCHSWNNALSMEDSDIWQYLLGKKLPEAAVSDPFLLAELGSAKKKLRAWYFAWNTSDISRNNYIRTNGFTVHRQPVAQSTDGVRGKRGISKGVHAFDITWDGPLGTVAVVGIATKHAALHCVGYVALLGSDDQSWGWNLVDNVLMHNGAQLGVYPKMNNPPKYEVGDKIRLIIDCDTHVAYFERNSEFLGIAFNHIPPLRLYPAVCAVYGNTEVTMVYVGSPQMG
Assay: co-IP; CRISPR-tagged endogenous proteins in whole animal lysates of C. elegans (wild-type background, and rpm-1 LD CRISPR background for the FSN-1 pair); 50 mM Tris HCl pH 7.5, 150 mM NaCl, 1.5 mM MgCl2, 10% glycerol, 0.1% NP-40, 1 mM DTT; anti-FLAG or anti-GFP, protein-G agarose 4 h at 4°C; immunoblot
Conditions: partners not purified

- fold change of co-precipitated CDK-5::FLAG, rpm-1 LD CRISPR background against wild-type background: ~6 fold
B1: CDK-5::3xFLAG CRISPR (endogenous CDK-5 C-terminally tagged with 3xFLAG) (enzyme)
chain: not shown
notes: CDK-5, serine/threonine kinase of C. elegans (Cdk5 orthologue), expressed from the endogenous locus; also called CDK-5::FLAG; CDK-5::FLAG CRISPR; source: C. elegans, endogenous locus tagged by CRISPR/Cas9, in whole animal lysate; not shown: 3xFLAG, C-terminal, kept
